From IntAct's records for PubMed 17363896

B1: Actin cytoskeleton-regulatory complex protein SLA1 (Saccharomyces cerevisiae), P32790 (parent)
chain: MTVFLGIYRAVYAYEPQTPEELAIQEDDLLYLLQKSDIDDWWTVKKRVIGSDSEEPVGLVPSTYIEEAPVLKKVRAIYDYEQVQNADEELTFHENDVFDVFDDKDADWLLVKSTVSNEFGFIPGNYVEPENGSTSKQEQAPAAAEAPAATPAAAPASAAVLPTNFLPPPQHNDRARMMQSKEDQAPDEDEEGPPPAMPARPTATTETTDATAAAVRSRTRLSYSDNDNDDEEDDYYYNSNSNNVGNHEYNTEYHSWNVTEIEGRKKKKAKLSIGNNKINFIPQKGTPHEWSIDKLVSYDNEKKHMFLEFVDPYRSLELHTGNTTTCEEIMNIIGEYKGASRDPGLREVEMASKSKKRGIVQYDFMAESQDELTIKSGDKVYILDDKKSKDWWMCQLVDSGKSGLVPAQFIEPVRDKKHTESTASGIIKSIKKNFTKSPSRSRSRSRSKSNANASWKDDELQNDVVGSAAGKRSRKSSLSSHKKNSSATKDFPNPKKSRLWVDRSGTFKVDAEFIGCAKGKIHLHKANGVKIAVAADKLSNEDLAYVEKITGFSLEKFKANDGSSSRGTDSRDSERERRRRLKEQEEKERDRRLKERELYELKKARELLDEERSRLQEKELPPIKPPRPTSTTSVPNTTSVPPAESSNNNNSSNKYDWFEFFLNCGVDVSNCQRYTINFDREQLTEDMMPDINNSMLRTLGLREGDIVRVMKHLDKKFGRENIASIPTNATGNMFSQPDGSLNVATSPETSLPQQLLPQTTSPAQTAPSTSAETDDAWTVKPASKSESNLLSKKSEFTGSMQDLLDLQPLEPKKAAASTPEPNLKDLEPVKTGGTTVPAAPVSSAPVSSAPAPLDPFKTGGNNILPLSTGFVMMPMITGGDMLPMQRTGGFVVPQTTFGMQSQVTGGILPVQKTGNGLIPISNTGGAMMPQTTFGAAATVLPLQKTGGGLIPIATTGGAQFPQTSFNVQGQQQLPTGSILPVQKTANGLISANTGVSMPTVQRTGGTMIPQTSFGVSQQLTGGAMMTQPQNTGSAMMPQTSFNAVPQITGGAMMPQTSFNALPQVTGGAMMPLQRTGGALNTFNTGGAMIPQTSFSSQAQNTGGFRPQSQFGLTLQKTGGIAPLNQNQFTGGAMNTLSTGGVLQQQQPQTMNTFNTGGVMQELQMMTTFNTGGAMQQPQMMNTFNTDGIMQQPQMMNTFNTGGAMQQPQQQALQNQPTGFGFGNGPQQSRQANIFNATASNPFGF
partner: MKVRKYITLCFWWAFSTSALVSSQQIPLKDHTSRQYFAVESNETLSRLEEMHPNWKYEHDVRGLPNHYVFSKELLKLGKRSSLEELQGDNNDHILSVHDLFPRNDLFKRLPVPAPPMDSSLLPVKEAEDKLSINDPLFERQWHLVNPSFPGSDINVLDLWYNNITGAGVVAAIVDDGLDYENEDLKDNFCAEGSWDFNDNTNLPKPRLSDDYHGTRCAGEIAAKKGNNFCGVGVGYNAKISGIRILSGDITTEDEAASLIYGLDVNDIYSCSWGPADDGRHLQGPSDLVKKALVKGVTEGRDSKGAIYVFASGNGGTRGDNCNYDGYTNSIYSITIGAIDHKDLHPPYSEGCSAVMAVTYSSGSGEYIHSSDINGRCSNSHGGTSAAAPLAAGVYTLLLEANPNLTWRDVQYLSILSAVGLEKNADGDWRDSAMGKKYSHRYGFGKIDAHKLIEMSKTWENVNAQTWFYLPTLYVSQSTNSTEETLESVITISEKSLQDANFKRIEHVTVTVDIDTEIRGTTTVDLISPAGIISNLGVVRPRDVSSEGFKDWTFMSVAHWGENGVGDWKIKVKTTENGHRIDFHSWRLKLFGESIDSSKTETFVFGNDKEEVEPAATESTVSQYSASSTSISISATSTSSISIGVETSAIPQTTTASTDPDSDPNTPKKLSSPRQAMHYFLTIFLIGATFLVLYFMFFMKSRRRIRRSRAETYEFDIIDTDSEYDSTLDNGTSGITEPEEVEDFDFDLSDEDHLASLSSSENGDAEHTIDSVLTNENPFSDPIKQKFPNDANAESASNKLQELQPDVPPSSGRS
B2: Kexin (Saccharomyces cerevisiae), P13134 (parent)
chain: B1 partner
partner: B1 chain

Variants of: B1
Details: with kex2_yeast KEX2, P13134
V529E was tested, and the “effect of a mutation on the interaction” value was “disrupting interaction”.

Variants of: B1
Details: with kex2_yeast KEX2, P13134
Remark: another data set of the same source
With V529E the “effect of a mutation on the interaction” value was “decreasing interaction”.

Variants of: B1
Details: with kex2_yeast KEX2, P13134
Remark: another data set of the same source
K525A was tested, and the “effect of a mutation on the interaction” value was “disrupting interaction”.

Variants of: B1
Details: with kex2_yeast KEX2, P13134
Remark: another data set of the same source
For K525A, the “effect of a mutation on the interaction” value was “decreasing interaction”.

Variants of: B1
Details: with kex2_yeast KEX2, P13134
Remark: another data set of the same source
For I531E, the “effect of a mutation on the interaction” value was “disrupting interaction”.

Variants of: B1
Details: with kex2_yeast KEX2, P13134
Remark: another data set of the same source
With F507A the “effect of a mutation on the interaction” value was “disrupting interaction”.

Variants of: B2
Details: with sla1_yeast SLA1, P32790
With D781A the “effect of a mutation on the interaction” value was “decreasing interaction”.

Variants of: B2
Details: with sla1_yeast SLA1, P32790
Remark: another data set of the same source
For F779A, the “effect of a mutation on the interaction” value was “disrupting interaction”.
